Experimental data from US5455181A, “Thrombin-inhibitory proteins from terrestrial leeches” (BASF Aktiengesellschaft, priority 1991, dated 1995).
No end group written: not given here.

Biological target: T1, Thrombin (Homo sapiens, UniProt P00734)
T1 construct: purchased Boehringer Mannheim
Assay: Determination of the inhibition of thrombin (Chromozym TH chromogenic substrate, absorption at 405 nm)
Format: biochemical
Details: periplasmic expression in E. coli DH 5α, fusion protein with maltose binding protein
Experimental: The purification of the proteins can be followed by a thrombin activity assay. It is expedient to use for this an optical assay in which a chromogenic substrate, for example Chromozym TH, is converted by thrombin. The fractions containing the novel proteins can be identified on addition to this optical assay by their thrombin-inhibiting action.
Thrombin (Boehringer Mannheim) was dissolved to a final concentration of 25 mU/ml in phosphate-buffered saline (PBS) ([…] NaCl; 0.2 g/1 […]; 0.144 g/l sodium phosphate; 0.2 g/l potassium phosphate, pH 7.5).
Chromozym TH (Boehringer Mannheim) was dissolved in 20 ml of H2 O/vial.
50 μl of thrombin solution and 100 μl of Chromozym plus 25 μl of sample or buffer were placed in the wells of a microtiter plate. The absorption at 405 nm was measured immediately thereafter at time 0 and after 30 minutes at 37° C.
The thrombin activity leads to liberation from the chromogenic substrate of a dye which absorbs at 405 nm. The inhibition of thrombin by a thrombin inhibitor is evident from a smaller increase in absorption at 405 nm and was quantified using a calibration plot.

thrombin inhibitor: recombinant protein, SEQ ID NO: 23 position 1 to 57, expressed in E. coli as fusion protein with maltose binding protein (MFSTKMFVVFVAVCICVTQSIRFGMGKVPCPDGEVGYTCDCGEKICLYGQSCNDGQC; cysteine pairing not given here; also: expressed as fusion protein with maltose binding protein)
concentration of the thrombin inhibitor: 1250 units per liter of culture medium
